Test results taken from the DeepSol protein solubility set.

Experiment: soluble on expression in E. coli; label from the status in PepcDB or PDB records

## MSLGDKKYVKRLLGSCWDYPFSGSGVGITEREAVLRAFGEYTERFIGMYYQFIARDKMIFATYRDLDKMGLNALSPHSIQLFHKRQYQQKDFPYSKFCEDSLIKWMPGKSLITNEEVYVPASFVLTPYIPERGENLISPSVTTGSAAHSNLTQAIINGIYEVIERDTARIYWYGNLRSTKLKVDNKDIKDFIDFIKNKKDIEVIITYMENDLNIPTFMASIIIGKNNRKSVVTGLSSNINPINGLKKAITEAFHTYLWKLLTQPSPKQQLENFTDHVALYLDPKMYIHFIDFINSNEELSLQSLILASAVYSFDSAERHLNMLIRLLKNKVLDLIVVDITPEILRKTGIHVVKVIIPPLLSILAGHIQYLGDKRLYNEGHHHHHH
  soluble on expression in E. coli: not soluble

## MGSDKIHHHHHHMKPIKEIADQLELKDDILYPYGHYIAKIDHRFLKSLENHEDGKLILVTAVTPTPAGEGKTTTSIGLSMSLNRIGKKSIVTLREPSLGPTLGLKGGATGGGRSRVLPSDEINLHFTGDMHAVASAHNLLAAVLDSHIKHGNELKIDITRVFWKRTMDMNDRALRSIVIGLGGSANGFPREDSFIITAASEVMAILALSENMKDLKERLGKIIVALDADRKIVRISDLGIQGAMAVLLKDAINPNLVQTTEGTPALIHCGPFANIAHGTNSIIATKMAMKLSEYTVTEAGFGADLGAEKFIDFVSRVGGFYPNAAVLVATVRALKYHGGANLKNIHEENLEALKEGFKNLRVHVENLRKFNLPVVVALNRFSTDTEKEIAYVVKECEKLGVRVAVSEVFKKGSEGGVELAKAVAEAAKDVEPAYLYEMNDPVEKKIEILAKEIYRAGRVEFSDTAKNALKFIKKHGFDELPVIVAKTPKSISHDPSLRGAPEGYTFVVSDLFVSAGAGFVVALSGDINLMPGLPKKPNALNMDVDDSGNIVGVS
  soluble on expression in E. coli: not soluble

## MADRPQLSIIIPVFNEAKILQKSPTENTRQYLGQFTEDQRIEILIIDGGSQDSTVELCQTYADSLPLHVFISPQTGRANQMNYGASLSRSEWLLFLHLDSILPHDFFTQIAEILTNSSYIAGAFGLTIDLPGRPYRWLEKLILWRSIYAQKPYGDQGLFIQRQDFQQLGGFADLPIMEDYQFMQKLGKQRGKVAIAGGKVITSGRRWQKLGLLRTTAINQLVVAGYHLGVSPQTLVHWYRGAKPNRGNRPNSDGTSCLEHHHHHH
  soluble on expression in E. coli: soluble

## MTKQQIEKLADLLPPFAATLYLDMIPEFQEGYASYVYQTPKQDIQKRRIKQLTKNFERLLDTPSFYVMPVTRKTAEQLLADKGLAYHLLSTVAANQVFAAAVNEDQMLFQVLRNGARVAFVILQEKGEFLEMTLGILETVTENEVPAAIVEAVQTYLLADMQEKLPSLSIMVSQESSKLFYQEQGFVLLAKGCKPGNENDSDVCQLVKYFSKP
  soluble on expression in E. coli: not soluble

## MAHHHHHHMEEESHALKDPWFVSYIPQLTTEIVKNNYEGDWNLAKEALQQPLDYVRTVEEFWSTLNSLPKLHQLESSSTFVFARNNVDASYEAFPNGTRIIVDIRKAAMAEKATAVILSSVIGESVSQEVCGGKPICDVLRLSSRPNKESPELVRLEVWLSDQTYGKAVLAYVRKALNDVGMSQPHVIFGESLFEKEKKKKGK
  soluble on expression in E. coli: soluble

## MSRDARWKALLELLVERGRLDVEEAATELEVSAATIRRDFDRLAEQQMLVRTRGGAVVHGVSYELPLRYKTARRASEKQRVAQAVAALVAPGEAVGLTGGTTTTEVARALAVRADLASGTPALTVVTNALNIANELAVRPQFKIVVTGGVARAQSYELIGPLADGVLGQVTLDVAVLGVVAFDVAHGAAAHDEAEAAINRLLCERAERVVVAADSSKLGRRAFARICATESVDTLVTDGAADPELVGRFEEAGVRVVTALEHHHHHH
  soluble on expression in E. coli: not soluble

## MAHHHHHHMIKCLKNNINIWKRVRRNVSYGYYNININEKIHKYFDNIDKKRNIKYISDCKSCKECVDEIKNGNYNLLKDFNMKMIGLDIEGYKIGKYGIVSIIQICYEDIYIFDIYKCDNVYLFINYIKDILECDDIIKVTHDCREDCSILYNQYNIHLKNILDTQVAYNLLLKNNNNYTNTYQISYDDLLKKYLFINNNHKIYFHKMITLDNYIYLKRPIMKELISYAIQDVIYLKPLILCILDKFIIKQKKKEEQEKNKYVNDKQNNKIKQEKFDKTSNTLQSKGNISSFNNQDLYHTKEIIQDIILHSKKYVNYQFLNSHIKDEKELQKGMILEGMVVSCNNTKMYLKLNMRKRGVILNYVQNKYEIGDIVKAVIVNFTRNDYINLGLYDEKILTLDAQKYIPREEVLQNIQKFLLNEEKI
  soluble on expression in E. coli: not soluble

## MRVCVIGAGLSGLAMGHALKERGISFVCLEKAPDVGGIWRQPGAGERGPGYQSLHLNTARQLTGYADFPMPSDYPLYPRHDQVAAYLRSFAEWAGLLDHVELRTEVLSVRQDSDGSWTVVSRDADGAQSARRFEQVVVASGHHTDPALPDPLPAGADSFAGTILHSLDYRDGGDFAGRRVVVVGLGASAVDIAADLSRHAERTLLSVRRGLHIVPKQVFGMSLDEIAEAPWWNEMPFAERRRWVEQALLVARGRLSDYGLPEPDHPILSSATTLSDEILSRIRHGAVTPKPAIASFESDRVVFTDGSSEAADTVVYCTGFHMTFPFLPPGCPVAADGAVELYRRIVPADRPGLYFVGLVRPAGALTRLVEAQAQWVARLVDGAAALPGTEEMREEISTYLAGIVERYGRTRGASIQVDVSPYLAEFREPLPVLEHHHHHH
  soluble on expression in E. coli: soluble

## MAHHHHHHMRTSAAVLSLFRGQRRLSCTMTAPLATRRFCRSTGDGLQKDWRPLSTTPHQPGPDTPASPSSSKSSANLDACEGALRAAPEGPASSKRGSSFASLALQRGSGEKANRMDRTAGLYKHTIVTETDKAPTGVARSATASSVSTGAGLTAERKKYATIPLRHCGTRAEPGNGSRSASSPPSASNSKREMTAQTEAPKTIKTAARPQDGPMVPDYGPLRATGLWSVEEVLDESKKTVDFRRIDDVESEIIEDHTNAEEALVPYAEEEAWKHKLMFEYKFKKTPKHLTWKEMGEEIECMDCVIELDEHRPEELFTIFFYFTDKKTGTRDLVWSARNDVSYSEGFTDLLAAIGACLGRSDVHRTIRFDDGVGCTRDLTFRKRSRYTSDVYVAFRPPEKYDKFQRKEEKDEYEASMEREGMSTWGYHPSLMDPEFSELDFKDPEGTYEVAISAHGFSFVVLRAIGRLLARPMKDFYRPSQLMRTAKVRTEDEIGFTHALKGWLGVDEQLYPHYTPIEALQDHWLGKDAPFSLCAIVNKLREMNYLKKENPEFQSWLSVRSHDTHLAIRNMGVKLLGVGASTLFVPVSHNATVNRLLPKPQQRRLESRFSLNAVLGLPDETRKLKDFKQITGHDRITDVPTSSTRETATIASPAQDEASVKNSPT
  soluble on expression in E. coli: not soluble
